± gives the uncertainty stated by the source.
B1: Formin-binding protein 4, residues 593 to 636; numbered along this chain, Q8N3X1 (parent)
chain: EINATPKGWSCHWDRDHRRYFYVNEQSGESQWEFPDGEEEEEES
B2: DnaJ homolog subfamily C member 2, residues 451 to 503; numbered along this chain, Q99543 (parent)
chain: SKNWSEDDLQLLIKAVNLFPAGTNSRWEVIANYMNIHSSSGVKRTAKDVIGKA

Variants of: B1
Experiment: abundance fitness (aPCA) (normalised: wild type 0, dead -1); higher = more abundant; growth selection in yeast, the domain comes from the species named
Details: Homo sapiens

Abundance fitness: each site, then its substitutions
S44: Q 0.247 ± 0.19; T -0.084 ± 0.33; D -0.043 ± 0.3; H -0.013 ± 0.2; L -0.194 ± 0.12; R 0.025 ± 0.3; M -0.536 ± 0.17; V 0.253 ± 0.16; G 0.083 ± 0.098
E42: D 0.038 ± 0.084; R 0.01 ± 0.057; G 0.122 ± 0.061; I -0.409 ± 0.12; H -0.009 ± 0.1; P 0.004 ± 0.064; K 0.022 ± 0.11; Y -0.152 ± 0.14; A 0.04 ± 0.061; M 0.038 ± 0.11; F -0.368 ± 0.16; V -0.005 ± 0.07; S 0.032 ± 0.073; C -0.023 ± 0.064; T 0.026 ± 0.073; W -0.283 ± 0.087; L -0.073 ± 0.069
E41: Y -0.502 ± 0.19; G 0.041 ± 0.059; C 0.016 ± 0.084; R 0.007 ± 0.059; A 0.012 ± 0.063; P 0.031 ± 0.078; M -0.064 ± 0.11; L -0.1 ± 0.073; Q 0.056 ± 0.091; D -0.28 ± 0.13; K -0.048 ± 0.11; N -0.109 ± 0.083; V 0.042 ± 0.065; T -0.011 ± 0.065; F -0.079 ± 0.11; S -0.139 ± 0.092
E39: T 0.11 ± 0.084; S -0.056 ± 0.072; V 0.008 ± 0.059; W -0.191 ± 0.074; Q 0.074 ± 0.078; R -0.068 ± 0.061
E43: V 0.046 ± 0.079; F 0.248 ± 0.3; T 0.008 ± 0.089; R -0.056 ± 0.077; S 0.041 ± 0.078; P 0.044 ± 0.083; D -0.02 ± 0.13; G 0.021 ± 0.082; W -0.197 ± 0.093; K 0.021 ± 0.092; A 0.068 ± 0.07; L -0.086 ± 0.093; M -0.148 ± 0.11; N -0.08 ± 0.15; Q -0.433 ± 0.3
E40: P -0.011 ± 0.061; R -0.035 ± 0.058; Y 0.114 ± 0.22; L 0.008 ± 0.061; N -0.057 ± 0.11; T 0.151 ± 0.1; W -0.101 ± 0.078; D -0.158 ± 0.13; F -0.144 ± 0.15; M -0.127 ± 0.084; K -0.004 ± 0.09; G 0.012 ± 0.054; V 0.056 ± 0.061; Q -0.033 ± 0.071; A 0.038 ± 0.067

Variants of: B2
Experiment: as above
Details: Homo sapiens

Abundance fitness: each site, then its substitutions
V16: D -0.371 ± 0.094; L -0.067 ± 0.061; Y -0.028 ± 0.11; H -0.25 ± 0.1; A -0.164 ± 0.062; E -0.042 ± 0.083; K 0.18 ± 0.071; I 0.08 ± 0.08; G -0.266 ± 0.055; R 0.002 ± 0.055; N -0.071 ± 0.096; Q 0.168 ± 0.098; M 0.065 ± 0.071; S -0.054 ± 0.06; W -0.268 ± 0.069; P -1.04 ± 0.13; C -0.186 ± 0.081
Q10: K -0.107 ± 0.075; V -0.206 ± 0.06; G -0.141 ± 0.062; I -0.212 ± 0.082; C -0.577 ± 0.086; P -0.802 ± 0.078; W -0.706 ± 0.094; M -0.34 ± 0.08; Y -0.207 ± 0.094; T -0.319 ± 0.073; E -0.054 ± 0.072; D -0.217 ± 0.075; H -0.254 ± 0.075; F -0.483 ± 0.083; A -0.189 ± 0.063; N -0.083 ± 0.085; S -0.163 ± 0.06; L -0.141 ± 0.056
D7: N -0.114 ± 0.063; A 0.106 ± 0.058; I -0.19 ± 0.089; K -0.04 ± 0.071; V -0.054 ± 0.061; S 0.042 ± 0.057; C -0.889 ± 0.16; Y -0.369 ± 0.094; M 0.037 ± 0.077; W -0.437 ± 0.066; H -0.257 ± 0.096; L -0.047 ± 0.053; R 0.015 ± 0.053; P -0.045 ± 0.067; Q 0.063 ± 0.07; F -0.308 ± 0.096; E 0.086 ± 0.068; G -0.015 ± 0.057; T -0.005 ± 0.064
L12: Q -0.894 ± 0.11; R -0.796 ± 0.058; Y -0.168 ± 0.091; T -0.907 ± 0.087; K -0.97 ± 0.098; N -0.875 ± 0.13; M -0.223 ± 0.084; V -0.511 ± 0.059; I -0.456 ± 0.096; E -0.952 ± 0.092; D -0.97 ± 0.11; W -0.177 ± 0.062; G -0.779 ± 0.057; C -0.667 ± 0.082; S -0.802 ± 0.067; A -0.617 ± 0.067; P -0.719 ± 0.085
A15: G -0.182 ± 0.058; P -0.724 ± 0.1; C -0.279 ± 0.1; N -0.984 ± 0.13; H -0.754 ± 0.2; Q -1.03 ± 0.12; I -0.982 ± 0.17; T -0.519 ± 0.093; E -0.965 ± 0.11; D -0.777 ± 0.12; L -0.61 ± 0.071; Y -0.688 ± 0.14; R -0.994 ± 0.08; M -0.83 ± 0.13; V -0.511 ± 0.072; S -0.214 ± 0.072; W -0.682 ± 0.1; F -0.847 ± 0.12
N17: A -0.085 ± 0.061
K14: F -0.006 ± 0.084; R -0.088 ± 0.053; I -0.296 ± 0.094; E -0.096 ± 0.066; W -0.602 ± 0.079; G -0.243 ± 0.055; Q -0.308 ± 0.071; D -0.054 ± 0.084; C -0.274 ± 0.07; N -0.274 ± 0.095; S -0.225 ± 0.062; V -0.196 ± 0.059; H -0.05 ± 0.098; L -0.317 ± 0.055; P -0.971 ± 0.099; Y -0.207 ± 0.083; A -0.026 ± 0.065; M -0.226 ± 0.084
S1: F -0.112 ± 0.14; Y -0.37 ± 0.14; V -0.063 ± 0.11; C -0.261 ± 0.097; P -0.547 ± 0.25; T -0.086 ± 0.093; L -0.32 ± 0.11; H -0.348 ± 0.41; A -0.372 ± 0.13; W -0.721 ± 0.12; M -0.364 ± 0.26; G 0.092 ± 0.092
N3: S -0.234 ± 0.071; V -0.227 ± 0.066; F -0.037 ± 0.14; H -0.025 ± 0.11; K -0.441 ± 0.092; D 0.015 ± 0.095; I 0.021 ± 0.1; T -0.114 ± 0.063; W -0.491 ± 0.071; E -0.554 ± 0.093; C -0.247 ± 0.14; P -0.159 ± 0.083; G -0.459 ± 0.066; R -0.338 ± 0.063; L -0.12 ± 0.062
D8: Y -0.712 ± 0.091; T -0.186 ± 0.071; R -0.453 ± 0.064; P -1.06 ± 0.095; A -0.977 ± 0.098; M -0.844 ± 0.12; Q -0.559 ± 0.1; E -0.081 ± 0.082; I -0.534 ± 0.091; K -0.422 ± 0.087; N -0.757 ± 0.1; V -0.937 ± 0.077; C -0.732 ± 0.086; S -0.615 ± 0.06
L9: C -0.052 ± 0.091; Y 0.022 ± 0.071; H -0.071 ± 0.11; V -0.082 ± 0.058; A -0.014 ± 0.078; K -0.043 ± 0.088; N 0.184 ± 0.11; M 0.036 ± 0.078; E 0.03 ± 0.068; Q 0.145 ± 0.085; W -0.058 ± 0.068; R -0.054 ± 0.058; G -0.143 ± 0.056; P -0.724 ± 0.11; F 0.065 ± 0.078; D 0.156 ± 0.099; I -0.014 ± 0.075
E6: F 0.038 ± 0.38; L -0.404 ± 0.17; C 0.051 ± 0.13; Y -0.186 ± 0.16; K -0.679 ± 0.44; G -0.155 ± 0.17; H -0.615 ± 0.31; T -0.175 ± 0.21; M -0.366 ± 0.16; S 0.074 ± 0.12; D -0.154 ± 0.16; Q -0.055 ± 0.15; P 0.107 ± 0.33; R -0.543 ± 0.16; V -0.121 ± 0.12
S5: Y -0.715 ± 0.5; A -0.747 ± 0.41; F -0.654 ± 0.19; M -0.514 ± 0.48; C -0.286 ± 0.23; T -0.014 ± 0.18; D -0.676 ± 0.32; V -0.676 ± 0.36
K2: V -0.365 ± 0.077; T -0.017 ± 0.081; N 0.076 ± 0.18; F -0.314 ± 0.17; Q -0.375 ± 0.12; I 0.1 ± 0.11; W -0.334 ± 0.076; H -0.214 ± 0.14; A -0.259 ± 0.084; S -0.059 ± 0.079; L -0.287 ± 0.067; Y -0.138 ± 0.18; C -0.274 ± 0.1; D -0.044 ± 0.096; M -0.076 ± 0.095; R -0.184 ± 0.062; E -0.096 ± 0.073; G -0.159 ± 0.064
L11: Y -0.579 ± 0.093; V -0.37 ± 0.056; P -0.891 ± 0.087; G -0.819 ± 0.058; K -0.747 ± 0.1; D -0.802 ± 0.1; C -0.403 ± 0.083; M -0.229 ± 0.09; I 0.007 ± 0.1; S -0.582 ± 0.065; A -0.712 ± 0.073; F -0.382 ± 0.092; R -0.536 ± 0.058; Q -0.632 ± 0.07
I13: D 0.142 ± 0.078; E -0.006 ± 0.068; S 0.073 ± 0.054; V -0.033 ± 0.057; Y -0.038 ± 0.076; K 0.053 ± 0.074; L 0.085 ± 0.058; R 0.086 ± 0.054; W 0.058 ± 0.064; M 0.021 ± 0.069; G 0.099 ± 0.054; Q 0.131 ± 0.08; C -0.147 ± 0.082; N -0.097 ± 0.11; P -0.537 ± 0.079; H 0.042 ± 0.1; A 0.14 ± 0.065; T -0.141 ± 0.072; F 0.039 ± 0.083
W4: T -0.621 ± 0.073; V -0.908 ± 0.076; A -0.639 ± 0.074; E -0.825 ± 0.12; Y -0.341 ± 0.097; D -0.808 ± 0.097; M -0.06 ± 0.079; R -0.777 ± 0.057; K -0.758 ± 0.12; P -0.828 ± 0.1; L -0.229 ± 0.063; C -0.704 ± 0.093; Q -0.704 ± 0.095; F -0.104 ± 0.16; I -0.465 ± 0.12; S -0.599 ± 0.065

— the Human Domainome abundance scans (Beltran et al. 2025)
